What was measured:
[1] = target: alpha-synuclein oligomers (UniProt P37840); experiment: ELISA, alpha-Syn oligomer coated plate, exp 3
[2] = target: alpha-synuclein oligomers (UniProt P37840); experiment: ELISA (Example 3), reference antibody 26F1
[3] = target: alpha-synuclein oligomers (UniProt P37840); experiment: ELISA, alpha-Syn oligomer coated plate, exp 2
[4] = target: alpha-synuclein oligomers (UniProt P37840); experiment: ELISA, alpha-Syn oligomer coated plate, exp 1
alpha-synuclein monomers = alpha-synuclein monomers (UniProt P37840); experiment: ELISA on antigen-coated plate, antibody titrated in tenfold steps, OD 450-630 nm
[5] = target: alpha-synuclein oligomers (UniProt P37840); experiment: as above
alpha-synuclein fibrils = alpha-synuclein fibrils (UniProt P37840); experiment: as above
[6] = target: alpha-synuclein oligomers (UniProt P37840); experiment: ELISA, ratio of EC50 values, reference alpha-Syn fibrils (FIG. 3)

Substance | EC50 [1] [pM] | fold weaker binding affinity to alpha-Syn oligomers than 26F1 [2] [fold] | EC50 [3] [pM] | EC50 [4] [pM] | EC50 (read off the curve) (alpha-synuclein monomers) [pM] | EC50 (read off the curve) [5] [pM] | EC50 (read off the curve) (alpha-synuclein fibrils) [pM] | binding affinity ratio alpha-Syn oligomers:alpha-Syn fibrils [6]
5G4 antibody | 600 | > 2 | 600 | 200 |  |  |  | 
MJFR14 antibody | 140 |  | 60 | 60 | 20 | 20 | 20 | 1
